Values joined by “and” are separate entries in the source; they are usually repeats but may differ in a detail not shown here. Identical values can stand only once. “Also recorded” adds a separate entry of the source.
Assays:
[1] = test system: HUVEC cells; test: Inhibition of endothelial cell proliferation in vitro (MTT); format: cell-based, human
Protocol: HUVEC cells were cultured to confluency in complete EGM2-MV medium (Cambrex) at 37° C. and in 5% CO2 humidified atmosphere. Cells were then collected by trypsine-EDTA digestion (Versene, Eurobio). After 5 min, the enzymatic reaction was stopped by adding 3 ml of the culture medium containing 5% FCS. Cells were then centrifuged at 220 g for 10 min at room temperature, washed twice with 5 ml of culture medium, suspended in complete culture medium, counted and adjusted to 50 000 cells/ml. One hundred μL per well were then distributed to a 96-well cell culture grade micro-plate (5 000 cells/well) and incubated with different concentrations of the purified protein 497C-T2 in Tris-HCl 20 mM buffer (pH 8), containing 150 mM NaCl and urea 2M; this buffer was used as control.
After 42 hrs at 37° C., cell proliferation was measured using thiazolyl blue tetrazolium bromide (MTT) method. Briefly, MTT (Sigma) was dissolved in PBS at 5 mg/ml, the solution was filtered (0.22 μm) and 10 μl were added to each well of the 96-well micro-plates. After 3 hrs of incubation at 37° C., 5% CO2 humidified atmosphere, the micro-plates were centrifuged at 220×g for 10 min, the supernatant was discarded, and the crystals dissolved by the addition of 100 μl of DMSO to each well. The optical density (OD) at 570 nm was then measured using μQuant micro-plate reader (Bio-Tek Instrument gmbh, Colmar, France) coupled to the KC4 (Bio-Tek) software.

[2] = test system: HUVEC; test: Wound assay, migration of human endothelial cells; format: cell-based; conditions: 18 hours; 497C-T2 0.83 and 1.66 μM; 497C-T3 2.4 μM; 497C-T4 3.52 μM; 497C-T5 3.65 μM; C-terminal tail 4.92 μM
Protocol: Cell migration was tested by the wound assay described by Sato and Rifkin (J Cell Biol. 1988; 107:1199) with few modifications. HUVEC grown in growth medium EGM-2MV (Cambrex) were seeded in 24-well plates at 80 000 cells per well in 500 μL of growth medium and grown to confluence at 37° C. in a humidified atmosphere containing 5% CO2. Cells were scrapped with a plastic tip on one line only. After wounding, the culture medium was changed for fresh medium (control, FIG. 3a) or fresh medium supplemented with: • FIG. 3b: 497C-T2 20 μg/mL (0.83 μM) • FIG. 3c: 497C-T2 40 μg/mL (1.66 μM) • FIG. 3d: 497C-T3 48 μg/mL (2.4 μM) • FIG. 3e: 497C-T4 60 μg/mL (3.52 μM) • FIG. 3f: 497C-T5 61 μg/mL (3.65 μM) • FIG. 3g: C-terminal tail 63 μg/mL (4.92 μM)
After 18 hours of culture, cells were observed and photographed under the inverted microscope (Analysis, Olympus, Rungis, France).

[3] = Body weight and toxicity monitoring of mice bearing CALU-6 tumors; conditions: CALU-6 bearing Nude mice, 497C-T2 10 mg/kg IP
Protocol: Injections in groups 1, 2, 3 and 4 were performed according to the schedules Q2DX8, i.e. 1 quantity every two days, eight times.
CDDP was resuspended in sterile physiological serum at a concentration of 0.5 mg/mL and injected IP at a concentration of 5 mg/kg at a volume of 10 mL/kg, according to the treatment schedule Q2DX8.
Ketamine/Xylazine (80 mg/kg-12 mg/kg; Ref. K-113, Sigma, France) was used to anaesthetize the animals before sacrifice by cervical dislocation.

B1: 497C-T2: entire LEL domain of protein 497C, SEQ ID NO:3 (112 amino acids); as produced SEQ ID NO:8, with N-terminal His-Tag and C-terminal tail, 24 kD (protein, listed as Homo sapiens)
chain: MHHHHHHSSGLVPRGSGMKETAAAKFERQHMDSPDLGTDDDDKISGFVFRHEIKDTFLRTYTDAMQTYNGNDERSRAVDHVQRSLSCCGVQNYTNWSTSPYFLEHGIPPSCCMNETDCNPQDLHNLTVAATKVNQKGCYDLVTSFMETNMGIIAGDRASPQPWRYRIRILAPSTSLRPHSSTTTTTTXIRLLTKPERKLSWLLPPLSNN
modifications: X: residue not identified in the source
[1]
  concentration significantly inhibiting human endothelial cell proliferation (as low as): 500 nM
[1]; 5 μM (122 μg) 497C-T2, 42 hrs, relative to control, 5 µM
  % inhibition of endothelial cell proliferation: 77% and 75%
[1]; increasing concentrations, FIG. 1
  inhibition of human endothelial cell proliferation: inhibited human endothelial cell proliferation in a dose dependent manner
[2]
  inhibition of endothelial cell migration: inhibited human endothelial cells migration in a dose dependent manner
[3]
  toxicity during the course of the treatment: No toxicity was observed; also recorded: not toxic

Source: patent US8372810B2, “Anti-tumor drug, medicament, composition, and use thereof” (Gene Signal International SA, priority 2007, dated 2013)
